Bounds are passed on as bounds.

Experimental findings from the Immune Epitope Database (IEDB) are described below.

One assay addresses HLA-B*44:03. As to the kind of experiment: IEDB peptide-MHC binding, purified MHC/competitive/radioactivity; filed as Kd, often an IC50 or EC50 that approximates it; ≥ and ≤ were set here for values at or beyond the usual limits of such assays.
For assay [1], the target named is HLA-B*18:01. Described as above.
Another assay has as its target HLA-B*45:01. The assay is described as above.
The target of another assay is HLA-B*40:02. The description is as above.
Assay [2] has as its target HLA-B*40:01. Described as above.
The target in a further assay is HLA-B*44:02. The description is as above.
A further assay concerns the target HLA-A*02:11. The experiment in a line: IEDB peptide-MHC binding, purified MHC/direct/fluorescence; filed as Kd, often an IC50 or EC50 that approximates it; ≥ and ≤ were set here for values at or beyond the usual limits of such assays. As to conditions: source organism: Zaire ebolavirus.
The target of a further assay is HLA-A*02:19. The description is as above. As to conditions: source organism: Zaire ebolavirus.
The target in assay [3] is HLA-B*40:01. Described as above. As to conditions: source organism: Reston ebolavirus - Reston.
The target of the next assay is HLA-A*24:03. Described as above. The conditions noted are these: source organism: Zaire ebolavirus.
The next assay concerns the target HLA-A*02:12. Described as above. As to conditions: source organism: Zaire ebolavirus.
A further assay addresses HLA-A*02:16. Described as above. The conditions noted are these: source organism: Zaire ebolavirus.
For the next assay, the target named is HLA-A*02:03. The assay is described as above. As to conditions: source organism: Zaire ebolavirus.
For the next assay, the target named is HLA-A*68:02. The description is as above. The conditions noted are these: source organism: Zaire ebolavirus.
The next assay deals with HLA-A*03:01. The assay is described as above. As to conditions: source organism: Zaire ebolavirus.
The next assay concerns the target HLA-A*29:02. Described as above. The conditions noted are these: source organism: Zaire ebolavirus.
The target in the next assay is HLA-B*27:03. The experiment in a line: IEDB peptide-MHC binding, purified MHC/competitive/fluorescence; filed as Kd, often an IC50 or EC50 that approximates it; ≥ and ≤ were set here for values at or beyond the usual limits of such assays. As to conditions: source organism: Zaire ebolavirus.
The target of the next assay is HLA-B*51:01. The description is as above. As to conditions: source organism: Zaire ebolavirus.
The target of the next assay is HLA-A*26:01. The assay is described as above. As to conditions: source organism: Zaire ebolavirus.
Another assay concerns the target HLA-B*15:01. Described as above. The conditions noted are these: source organism: Zaire ebolavirus.
The next assay has as its target HLA-B*39:01. Described as above. As to conditions: source organism: Zaire ebolavirus.
In the next assay the target is HLA-B*57:01. The assay is described as above. As to conditions: source organism: Zaire ebolavirus.
A further assay addresses HLA-B*46:01. Described as above. The conditions noted are these: source organism: Zaire ebolavirus.
The target in another assay is HLA-A*02:01. The description is as above. The conditions noted are these: source organism: Zaire ebolavirus.
Another assay has as its target HLA-B*15:17. Described as above. The conditions noted are these: source organism: Zaire ebolavirus.
A further assay has as its target HLA-A*24:02. As to the kind of experiment: IEDB peptide-MHC binding, purified MHC/competitive/fluorescence; ≥ and ≤ were set here for values at or beyond the usual limits of such assays. The conditions noted are these: source organism: Sudan ebolavirus.
The target of a further assay is HLA-A*69:01. As to the kind of experiment: IEDB peptide-MHC binding, purified MHC/competitive/fluorescence; filed as Kd, often an IC50 or EC50 that approximates it; ≥ and ≤ were set here for values at or beyond the usual limits of such assays. As to conditions: source organism: Zaire ebolavirus.
Assay [4] addresses HLA-B*18:01. The description is as above. As to conditions: source organism: Zaire ebolavirus.
Setting [5] is: source organism: Mammarenavirus brazilense.
The mark [6] stands for this setting: source organism: Mammarenavirus juninense.
Where [7] appears, read: source organism: Mammarenavirus machupoense.
[8] abbreviates: source organism: SARS coronavirus Tor2.
Where [9] appears, read: source organism: Lymphocytic choriomeningitis virus (strain WE).
[10] abbreviates: source organism: Lymphocytic choriomeningitis virus (strain Armstrong).

Consider AENGELTEI, for which the equilibrium dissociation constant (Kd) is 319 nM in the assay with HLA-B*44:03 (setting [5]); not below 77500 nM with HLA-B*18:01 [1] (setting [5]); 74 nM with HLA-B*45:01 (setting [5]); 47.8 nM in the assay with HLA-B*40:02 (setting [5]); 2030 nM with HLA-B*40:01 [2] (setting [5]); 181 nM with HLA-B*44:02 (setting [5]).
Turning to DEMVCKWLL, the Kd is not below 20000 nM in the assay with HLA-A*02:11; not below 20000 nM with HLA-A*02:19; 387 nM with HLA-B*40:01 [3]; not below 20000 nM with HLA-A*24:03; not below 20000 nM in the assay with HLA-A*02:12; not below 20000 nM with HLA-A*02:16. The Kd with HLA-A*02:03, with HLA-A*68:02, with HLA-A*03:01, in the assay with HLA-A*29:02, with HLA-B*27:03 and with HLA-B*51:01 was not below 20000 nM in each case. Further, the Kd with HLA-A*26:01, with HLA-B*15:01, with HLA-B*39:01, in the assay with HLA-B*57:01, with HLA-B*46:01 and in the assay with HLA-A*02:01 was not below 20000 nM throughout. In the assay with HLA-B*15:17, this sequence returned a Kd not below 20000 nM.
As to DETKKQVNLM, the equilibrium dissociation constant (Kd) was not below 70100 nM with HLA-B*44:03 (setting [6]); 9010 nM in the assay with HLA-B*18:01 [1] (setting [6]); not below 33100 nM with HLA-B*45:01 (setting [6]); not below 70800 nM with HLA-B*40:02 (setting [6]); 14600 nM with HLA-B*40:01 [2] (setting [6]); not below 64600 nM with HLA-B*44:02 (setting [6]).
For the sequence EEVLDVCPL, the Kd was found to be 5440 nM with HLA-B*44:03 (setting [7]); 368 nM with HLA-B*18:01 [1] (setting [7]); 2480 nM with HLA-B*45:01 (setting [7]); 85.2 nM with HLA-B*40:02 (setting [7]); 70.2 nM with HLA-B*40:01 [2] (setting [7]); 13700 nM in the assay with HLA-B*44:02 (setting [7]).
For EWAENCYNL, in the assay with HLA-A*24:02, the IC50 is 6480 nM. The Kd with HLA-A*02:11, in the assay with HLA-A*02:19, with HLA-A*24:03, with HLA-A*02:12, with HLA-A*02:16 and with HLA-A*02:03 was not below 20000 nM each time. For the same sequence, the Kd with HLA-A*68:02, with HLA-A*03:01, in the assay with HLA-A*29:02, in the assay with HLA-A*69:01, in the assay with HLA-B*27:03 and in the assay with HLA-B*51:01 was not below 20000 nM throughout. Also, the Kd with HLA-A*26:01, with HLA-B*18:01 [4], with HLA-B*15:01, with HLA-B*39:01, with HLA-B*57:01 and in the assay with HLA-B*46:01 was not below 20000 nM in each case. For the same sequence, the Kd with HLA-A*02:01 and with HLA-B*15:17 was not below 20000 nM throughout.
Turning to FEEAALCTFL, the dissociation constant Kd was 45.9 nM with HLA-B*44:03 (setting [8]); 477 nM with HLA-B*18:01 [1] (setting [8]); 163 nM with HLA-B*45:01 (setting [8]); 14 nM in the assay with HLA-B*40:02 (setting [8]); 1.98 nM with HLA-B*40:01 [2] (setting [8]); 96.2 nM in the assay with HLA-B*44:02 (setting [8]).
LDVLCPSSL: the Kd with HLA-B*44:03 (setting [9]) was not below 78100 nM; with HLA-B*18:01 [1] (setting [9]) it was not below 77500 nM; with HLA-B*45:01 (setting [9]) it was not below 77700 nM; with HLA-B*40:02 (setting [9]), 487 nM; in the assay with HLA-B*40:01 [2] (setting [9]), not below 23600 nM; in the assay with HLA-B*44:02 (setting [9]) it was not below 22200 nM.
As for QEYADVFHLY, the Kd with HLA-B*44:03 (setting [8]) worked out at 6.61 nM; in the assay with HLA-B*18:01 [1] (setting [8]), 147 nM; with HLA-B*45:01 (setting [8]), 608 nM; with HLA-B*40:02 (setting [8]), 110 nM; with HLA-B*40:01 [2] (setting [8]), 553 nM; with HLA-B*44:02 (setting [8]), 11.9 nM.
As to REAVESCPL, the Kd with HLA-B*44:03 (setting [10]) is 13200 nM; in the assay with HLA-B*18:01 [1] (setting [10]), 10300 nM; with HLA-B*45:01 (setting [10]), not below 60800 nM; with HLA-B*40:02 (setting [10]), 58.7 nM; in the assay with HLA-B*40:01 [2] (setting [10]) it was 11100 nM; with HLA-B*44:02 (setting [10]), 5840 nM.
As to REFVFKNKDG, the Kd was 515 nM with HLA-B*44:03 (setting [8]); not below 70500 nM in the assay with HLA-B*18:01 [1] (setting [8]); 5420 nM in the assay with HLA-B*45:01 (setting [8]); 11500 nM with HLA-B*40:02 (setting [8]); 156 nM with HLA-B*40:01 [2] (setting [8]); 11500 nM with HLA-B*44:02 (setting [8]).
For the sequence SDTQIPGVC, the dissociation constant (Kd) in the assay with HLA-B*44:03 (setting [6]) was not below 78100 nM; in the assay with HLA-B*18:01 [1] (setting [6]), not below 77500 nM; with HLA-B*45:01 (setting [6]), not below 51000 nM; with HLA-B*40:02 (setting [6]), 12200 nM; with HLA-B*40:01 [2] (setting [6]), not below 65600 nM; with HLA-B*44:02 (setting [6]) it was not below 56200 nM.
For the sequence SEAFEYYHTL, the Kd was 18.4 nM in the assay with HLA-B*44:03 (setting [8]); 2140 nM with HLA-B*18:01 [1] (setting [8]); 60.4 nM in the assay with HLA-B*45:01 (setting [8]); 6.54 nM with HLA-B*40:02 (setting [8]); 1.18 nM in the assay with HLA-B*40:01 [2] (setting [8]); 10.5 nM in the assay with HLA-B*44:02 (setting [8]).
Turning to SETLLPLTQY, the Kd amounted to 33.2 nM with HLA-B*44:03 (setting [8]); 66.5 nM with HLA-B*18:01 [1] (setting [8]); 1750 nM with HLA-B*45:01 (setting [8]); 1880 nM with HLA-B*40:02 (setting [8]); 13100 nM with HLA-B*40:01 [2] (setting [8]); 52.1 nM with HLA-B*44:02 (setting [8]).
In the case of SEVGICLST, the Kd stood at 20.4 nM with HLA-B*44:03 (setting [8]); 4510 nM in the assay with HLA-B*18:01 [1] (setting [8]); 8.52 nM with HLA-B*45:01 (setting [8]); 10.6 nM with HLA-B*40:02 (setting [8]); 241 nM with HLA-B*40:01 [2] (setting [8]); 120 nM with HLA-B*44:02 (setting [8]).
For the sequence SFYYIWKSYV, the Kd in the assay with HLA-B*44:03 (setting [8]) is 319 nM; with HLA-B*18:01 [1] (setting [8]) it was not below 70500 nM; with HLA-B*45:01 (setting [8]) it was 1150 nM; with HLA-B*40:02 (setting [8]) it was 2320 nM; with HLA-B*40:01 [2] (setting [8]), 1150 nM; with HLA-B*44:02 (setting [8]) it was 415 nM.
